This sample holds only a part of the variants without activity.
B1: TPR 5TU (parent)
chain: GGAUCUUCUCGAUCUAACAAAAAAGACAAAUCUGCCACAAAGCUUGAGAGCAUCUUCGGAUGCAGAGGCGGCAGCCUUCGGUGGCGCGAUAGCGCCAACGUUCUCAACUAUGACACGCAAAACGCGUGCUCCGUUGAAUGGAGUUUAUCAUG

Variants of: B1
Experiment: polymerase ribozyme fitness, log enrichment relative to wild type (log ratio); higher = more active; in vitro selection for triplet polymerase activity
How it was run: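 The heterodimeric triplet polymerase ribozyme's subunits were each mutagenized into PCR-built libraries and transcribed. Every library was selected once, in triplicate, by annealing with a biotinylated primer, the partner subunit and triplets, incubating frozen at −7 °C, gel-excising extended constructs, capturing on streptavidin beads and running RT-PCR. Input and output libraries were Illumina-sequenced, with genotypes kept only at ≥10 input reads and ≥1 read per output. Fitness, from inverse-variance-weighted replicate averages, is the base-2 logarithm of genotype enrichment over wild-type enrichment.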

First: C108U A142C
Second: A107C C118U
The “polymerase ribozyme fitness (log ratio)” value of the first is higher: -3.43 for the first, at most -4.2 for the second.

C99G U101A and A106G C116U U148C are within 0.2 log units of each other in “polymerase ribozyme fitness (log ratio)” value: -1.12 for the first, -1.25 for the second.

First: C96U A138U
Second: U102G C116A
The “polymerase ribozyme fitness (log ratio)” value of the first is lower: at most -4.2 for the first, -2.07 for the second.

Compared with C99U A147G, C114U U135C is lower in “polymerase ribozyme fitness (log ratio)” value: -2 for the first, -2.95 for the second.

Compared with C96G C131A, C96G C108A C123G is lower in “polymerase ribozyme fitness (log ratio)” value: -2.35 for the first, -3.69 for the second.

A97U G140U and C96U U151G are within 0.2 log units of each other in “polymerase ribozyme fitness (log ratio)” value: -3.87 for the first, -4.05 for the second.

Going from U101G A107U to C96G A150U, the “polymerase ribozyme fitness (log ratio)” value rises from -3.84 to 0.451.

First: C99G C114U
Second: C105U A120U G124A
The “polymerase ribozyme fitness (log ratio)” value of the first is lower: -2.38 for the first, 0.877 for the second.

Compared with C96U U104G C129G, U102G C105U C125U A150C is lower in “polymerase ribozyme fitness (log ratio)” value: -2.81 for the first, -4.12 for the second.

Compared with A107G C132U G133U, U102G U148A is lower in “polymerase ribozyme fitness (log ratio)” value: -3.52 for the first, -3.81 for the second.

Going from A97U U151G to A97G U102A C129A, the “polymerase ribozyme fitness (log ratio)” value rises from at most -4.2 to -3.98.

Compared with C114G G140C G141U, A97G C131G is higher in “polymerase ribozyme fitness (log ratio)” value: at most -4.2 for the first, -3.21 for the second.

Going from A97G C131A to U101G G117A G133U, the “polymerase ribozyme fitness (log ratio)” value falls from -2.32 to -4.1.

Going from C105G A138G to C114U A147C, the “polymerase ribozyme fitness (log ratio)” value rises from -3.88 to -2.83.

Compared with C96G U102C A121G G141A A150G, A97U C99G is higher in “polymerase ribozyme fitness (log ratio)” value: -4.15 for the first, -1.6 for the second.

Going from A97U to A97G, the “polymerase ribozyme fitness (log ratio)” value rises from -0.75 to -0.12.

Going from A97C to U104G U109A G133C, the “polymerase ribozyme fitness (log ratio)” value falls from 0.773 to -2.78.

First: U101A U109G C118U C125G A138G G141A
Second: C99G C149U
The “polymerase ribozyme fitness (log ratio)” value of the first is lower: at most -4.2 for the first, -1.74 for the second.

Going from C103A A120C G124A U134A to C99G A147C, the “polymerase ribozyme fitness (log ratio)” value rises from -3.66 to -1.47.

Going from A98G A121G to A106G A142C, the “polymerase ribozyme fitness (log ratio)” value rises from -1.63 to -0.922.

Compared with A98G G128A, C114G G133A is lower in “polymerase ribozyme fitness (log ratio)” value: -3.02 for the first, at most -4.2 for the second.

C96U A119U G152C and C114U U148G are within 0.2 log units of each other in “polymerase ribozyme fitness (log ratio)” value: -3.13 for the first, -3.06 for the second.

Going from C96U C149U to C99U A150G, the “polymerase ribozyme fitness (log ratio)” value rises from -0.874 to -0.552.

Going from C99U A150C to A98G G124C, the “polymerase ribozyme fitness (log ratio)” value rises from at most -4.2 to -0.819.

First: A98U A138G
Second: C99G G126A
The “polymerase ribozyme fitness (log ratio)” value of the first is lower: -3.32 for the first, -0.619 for the second.

Compared with C99G G126U, A97G C116U G133U is lower in “polymerase ribozyme fitness (log ratio)” value: -0.93 for the first, at most -4.2 for the second.

Compared with A97U C125A, U104G G141U is higher in “polymerase ribozyme fitness (log ratio)” value: -0.436 for the first, 0.973 for the second.

First: U102G G124A
Second: A98U A115U A121G U127G
The “polymerase ribozyme fitness (log ratio)” value of the first is higher: -2.85 for the first, -3.32 for the second.

C103A A120G C131U A138U and U104G U134G G143A are within 0.2 log units of each other in “polymerase ribozyme fitness (log ratio)” value: -3.71 for the first, -3.69 for the second.

First: C96G C105G G143A
Second: A107U A110U C114U
The “polymerase ribozyme fitness (log ratio)” value of the first is higher: -3.02 for the first, at most -4.2 for the second.

C96U U145A A150U and U101G G124A are within 0.2 log units of each other in “polymerase ribozyme fitness (log ratio)” value: 0.912 for the first, 0.852 for the second.

Compared with C96U U148A, C96U U148G is higher in “polymerase ribozyme fitness (log ratio)” value: -3.33 for the first, -3.13 for the second.

Going from U101A A106C A147G to G112U, the “polymerase ribozyme fitness (log ratio)” value rises from -3.14 to -2.77.

First: G112A
Second: G112C
The “polymerase ribozyme fitness (log ratio)” value of the first is higher: -1.96 for the first, -2.68 for the second.

First: C103G U144A
Second: A97G C99G
The “polymerase ribozyme fitness (log ratio)” value of the first is lower: -2.15 for the first, -0.579 for the second.

Compared with C105G A120U, A107C A110G A121G is lower in “polymerase ribozyme fitness (log ratio)” value: -0.931 for the first, at most -4.2 for the second.

Compared with A115C C123A, C103A U144G is lower in “polymerase ribozyme fitness (log ratio)” value: -1.17 for the first, -2.84 for the second.

First: U104G A119C C123U
Second: C99A A115U A120G
The “polymerase ribozyme fitness (log ratio)” value of the first is higher: 0.501 for the first, -2.43 for the second.

Compared with U101G C118A G126A, A106G A115U is higher in “polymerase ribozyme fitness (log ratio)” value: -3.59 for the first, -1.05 for the second.

Compared with C96U C103U, C96U A115U is lower in “polymerase ribozyme fitness (log ratio)” value: -1.25 for the first, -2.64 for the second.

Going from A113G A138U to C96U G100U, the “polymerase ribozyme fitness (log ratio)” value rises from -3.79 to -3.13.

First: C96U G141A
Second: C96U G141C
The “polymerase ribozyme fitness (log ratio)” value of the first is higher: 0.0586 for the first, -0.372 for the second.

First: C96U C123A
Second: C96U C123U
The “polymerase ribozyme fitness (log ratio)” value of the first is higher: -0.106 for the first, -0.655 for the second.

Going from A98G A120G C125A U144A to C96U A113G G136C, the “polymerase ribozyme fitness (log ratio)” value falls from -1.16 to -3.93.

Compared with C96U U144G, C96G C105U C116G A119U C132U is lower in “polymerase ribozyme fitness (log ratio)” value: -0.238 for the first, -1.57 for the second.

C96U A142C and C96U A142G are within 0.2 log units of each other in “polymerase ribozyme fitness (log ratio)” value: -1.15 for the first, -1.18 for the second.

Compared with A107G C131A, C96G A122U A142U is higher in “polymerase ribozyme fitness (log ratio)” value: -4.19 for the first, -1.45 for the second.

Compared with A106G C118U, C103G G128C is lower in “polymerase ribozyme fitness (log ratio)” value: 0.261 for the first, at most -4.2 for the second.

C96U U109C and A97U U139C G140C U145G are within 0.2 log units of each other in “polymerase ribozyme fitness (log ratio)” value: -3.67 for the first, -3.85 for the second.

Compared with A113U A120G, C96U C105U is higher in “polymerase ribozyme fitness (log ratio)” value: -1.73 for the first, 0.67 for the second.

First: C96U C105G
Second: C96U C105A
The “polymerase ribozyme fitness (log ratio)” value of the first is lower: -2.46 for the first, -0.493 for the second.

First: C103G G141U
Second: U102C A150C
The “polymerase ribozyme fitness (log ratio)” value of the first is higher: -3.36 for the first, -4.08 for the second.

Going from A98U U101G C129U U139C to A97G A150C, the “polymerase ribozyme fitness (log ratio)” value rises from at most -4.2 to -2.96.

Compared with A97G A150G, A98G U101C G141U is higher in “polymerase ribozyme fitness (log ratio)” value: -2.82 for the first, 0.851 for the second.

First: A106G C125A
Second: A115C U127C
The “polymerase ribozyme fitness (log ratio)” value of the first is higher: -0.665 for the first, -1.1 for the second.

Going from C99G G124A G141U to C114U C131U, the “polymerase ribozyme fitness (log ratio)” value falls from -0.199 to -1.64.

First: G100C G136U U146G
Second: C114A U139G
The “polymerase ribozyme fitness (log ratio)” value of the first is lower: at most -4.2 for the first, -2.32 for the second.

Going from A110G to A110U, the “polymerase ribozyme fitness (log ratio)” value falls from -2.42 to -3.57.

Going from U102G U104C to C96G C103U, the “polymerase ribozyme fitness (log ratio)” value rises from at most -4.2 to -0.445.

Compared with A113C C118A, A115C U145C is higher in “polymerase ribozyme fitness (log ratio)” value: at most -4.2 for the first, -2.43 for the second.

Going from C103U A115G to C96G C108U, the “polymerase ribozyme fitness (log ratio)” value falls from -1.14 to -2.5.

First: C99A U101G
Second: A110U G128A
The “polymerase ribozyme fitness (log ratio)” value of the first is higher: -3.16 for the first, at most -4.2 for the second.

First: U109G C118A C125G
Second: C108G G136A A147C
The “polymerase ribozyme fitness (log ratio)” value of the first is higher: -3.62 for the first, at most -4.2 for the second.

Going from U109G G140U to C96G U144C, the “polymerase ribozyme fitness (log ratio)” value rises from -3.76 to -0.123.

First: C114U G141C
Second: G100A G126A
The “polymerase ribozyme fitness (log ratio)” value of the first is higher: -3.4 for the first, -4.02 for the second.

Compared with U104A A137C, C103G G117U is higher in “polymerase ribozyme fitness (log ratio)” value: -3.89 for the first, -0.61 for the second.

First: C114U C125U
Second: C99A U148G
The “polymerase ribozyme fitness (log ratio)” value of the first is higher: -3.33 for the first, at most -4.2 for the second.

First: A113U U146C
Second: C99U C103A G128A G136U U148G
The “polymerase ribozyme fitness (log ratio)” value of the first is higher: -1.49 for the first, at most -4.2 for the second.

Going from U102G G124C G133A A137G G143U to C99A G136A, the “polymerase ribozyme fitness (log ratio)” value rises from at most -4.2 to -0.217.

C103G U151A and U101G A106C A113C A122G cannot be ordered by “polymerase ribozyme fitness (log ratio)” value: at most -4.2 for the first, at most -4.2 for the second.

First: A106C G152U
Second: C99G A115G C125G G136C
The “polymerase ribozyme fitness (log ratio)” value of the first is higher: -2.57 for the first, -3.89 for the second.

Going from A106U U135A to A98U G136C, the “polymerase ribozyme fitness (log ratio)” value falls from -2.14 to -3.87.

Compared with U101G G136A, U101G G136C is lower in “polymerase ribozyme fitness (log ratio)” value: 0.652 for the first, -2.44 for the second.

U109G C114G and U102G C116G G133C are within 0.2 log units of each other in “polymerase ribozyme fitness (log ratio)” value: -3.7 for the first, -3.6 for the second.

Going from C114A U144G to U111G, the “polymerase ribozyme fitness (log ratio)” value falls from -3.71 to -4.05.

First: U111A
Second: U111C
The “polymerase ribozyme fitness (log ratio)” value of the first is lower: -3.05 for the first, -1.77 for the second.

Compared with G100U U144G, C114U A137U is lower in “polymerase ribozyme fitness (log ratio)” value: -3.5 for the first, -4.05 for the second.

Compared with C99U G136U, C99U G136A is higher in “polymerase ribozyme fitness (log ratio)” value: -2.25 for the first, 0.0423 for the second.

Compared with C96U G143C U146C, U109G A142C is lower in “polymerase ribozyme fitness (log ratio)” value: -1.75 for the first, -2.18 for the second.

Going from C96U A137U to G100U U101G, the “polymerase ribozyme fitness (log ratio)” value rises from -3.84 to -3.34.

C105G C118A and C103A A115U are within 0.2 log units of each other in “polymerase ribozyme fitness (log ratio)” value: -3.26 for the first, -3.09 for the second.

First: C103A A115C
Second: C99U U102A
The “polymerase ribozyme fitness (log ratio)” value of the first is lower: -2.54 for the first, -1.33 for the second.

First: U104C U135G
Second: C96G U134G
The “polymerase ribozyme fitness (log ratio)” value of the first is lower: -3.31 for the first, -1.64 for the second.

In the case of A110G G136A, the “polymerase ribozyme fitness (log ratio)” value is reported as -2.94.
